Laboratory results as given in patent publication US7279548 (CYTOGEN, dated 2007).
No end group written: not given here. *: point of attachment. Biotin = O=C1N[C@H]2[C@H](CS[C@H]2CCCCC(=O)*)N1

Legend:
[1] = molecular target: T1, WWP1.4 WW domain expressed as GST fusion protein (human); test: ELISA cross affinity mapping, GST-WW fusion
T1 construct: Whole WWP1 entry named; not shown: glutathione S-transferase (GST) fusion partner

[2] = molecular target: T2, WWP2.3 WW domain expressed as GST fusion protein (human); test: ELISA cross affinity mapping, GST-WW fusion
T2 construct: Whole WWP2 entry named; not shown: glutathione S-transferase (GST) fusion partner

[3] = molecular target: T3, WWP3 WW domain expressed as GST fusion protein (human); test: ELISA cross affinity mapping, GST-WW fusion
T3 construct: Whole WWP3 entry named; not shown: glutathione S-transferase (GST) fusion partner

[4] = molecular target: T4, WWP1.1 WW domain expressed as GST fusion protein (human); test: ELISA cross affinity mapping, GST-WW fusion
T4 construct: Whole WWP1 entry named; not shown: glutathione S-transferase (GST) fusion partner

[5] = molecular target: T5, WWP1.3 WW domain expressed as GST fusion protein (human); test: ELISA cross affinity mapping, GST-WW fusion
T5 construct: Label WWP1.3 follows the pattern of the printed labels; whole WWP1 entry named; not shown: glutathione S-transferase (GST) fusion partner

[6] = molecular target: T6, WWP2.1 WW domain expressed as GST fusion protein (human); test: ELISA cross affinity mapping, GST-WW fusion
T6 construct: Whole WWP2 entry named; not shown: glutathione S-transferase (GST) fusion partner

[7] = molecular target: T7, WWP1.2 WW domain expressed as GST fusion protein (human); test: ELISA cross affinity mapping, GST-WW fusion
T7 construct: Whole WWP1 entry named; not shown: glutathione S-transferase (GST) fusion partner

[8] = molecular target: T8, WWP2.2 WW domain expressed as GST fusion protein (human); test: ELISA cross affinity mapping, GST-WW fusion
T8 construct: Whole WWP2 entry named; not shown: glutathione S-transferase (GST) fusion partner

[9] = molecular target: T9, WWP2.4 WW domain expressed as GST fusion protein (human); test: ELISA cross affinity mapping, GST-WW fusion
T9 construct: Whole WWP2 entry named; also called WW2.4; not shown: glutathione S-transferase (GST) fusion partner

[10] = molecular target: T1, WWP1.4 WW domain expressed as GST …; test: cross affinity mapping, GST-WW fusion
[11] = molecular target: T2, WWP2.3 WW domain expressed as GST …; test: cross affinity mapping, GST-WW fusion
[12] = molecular target: T4, WWP1.1 WW domain expressed as GST …; test: cross affinity mapping, GST-WW fusion
[13] = molecular target: T5, WWP1.3 WW domain expressed as GST …; test: cross affinity mapping, GST-WW fusion
[14] = molecular target: T6, WWP2.1 WW domain expressed as GST …; test: cross affinity mapping, GST-WW fusion
[15] = molecular target: T7, WWP1.2 WW domain expressed as GST …; test: cross affinity mapping, GST-WW fusion
[16] = molecular target: T8, WWP2.2 WW domain expressed as GST …; test: cross affinity mapping, GST-WW fusion
[17] = molecular target: T9, WWP2.4 WW domain expressed as GST …; test: cross affinity mapping, GST-WW fusion

T3 sequence (chain, as listed by the source): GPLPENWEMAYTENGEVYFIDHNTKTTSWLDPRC
T2 sequence (chain, as listed by the source): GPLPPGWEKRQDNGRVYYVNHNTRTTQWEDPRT
T6 sequence (chain, as listed by the source): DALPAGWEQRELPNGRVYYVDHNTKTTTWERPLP
T9 sequence (chain, as listed by the source): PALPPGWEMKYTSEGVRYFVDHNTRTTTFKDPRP
T7 sequence (chain, as listed by the source): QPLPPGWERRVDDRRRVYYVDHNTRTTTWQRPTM
T4 sequence (chain, as listed by the source): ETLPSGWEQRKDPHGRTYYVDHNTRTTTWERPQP
T8 sequence (chain, as listed by the source): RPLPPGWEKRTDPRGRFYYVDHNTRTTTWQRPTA
T5 sequence (chain, as listed by the source): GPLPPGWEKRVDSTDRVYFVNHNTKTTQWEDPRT

Row | Binder | binding result [1] | binding result [2] | binding result [3] | binding result [4] | binding result [5] | binding result [6] | binding result [7] | binding result [8] | binding result [9] | binding result [10] | binding result [11] | binding result [12] | binding result [13] | binding result [14] | binding result [15] | binding result [16] | binding result [17]
1 | Biotin-SGSGPGTPYPPPPEFY (Tested as SA-AP complex) [WBP-2B peptide (biotin-SGSGPGTPYPPPPEFY)] | no binding | no binding | no binding | no binding | no binding | no binding | no binding | no binding | no binding | – | – | – | – | – | – | – | –
2 | Biotin-SGSGPGTPPAPYTVGPGY (not fully specified) [WBP-1-Pro3 (alanine substitution at the third proline position of the PPPPY motif of WBP-1)] | no binding | no binding | – | no binding | no binding | no binding | no binding | no binding | no binding | – | – | – | – | – | – | – | –
3 | Biotin-SGSGYVQPPPPPYPGPM (Tested as SA-AP complex) [WBP-2A peptide (biotin-SGSGYVQPPPPPYPGPM)] | – | – | binds | – | – | – | – | – | – | – | – | – | – | – | – | – | –
4 | Biotin-SGSGYVQPPPAPYPGPM [WBP-2A-Pro4 (alanine substitution of the third proline of the PPPPY motif of WBP-2A)] | no binding | no binding | no binding | no binding | no binding | no binding | no binding | no binding | no binding | – | – | – | – | – | – | – | –
5 | NRLDLPPAETFED (also: biotinylated, Short peptide) | – | – | – | – | – | – | – | – | – | no binding | no binding | no binding | no binding | no binding | no binding | no binding | no binding

More lines, now with the values ahead:

Row | binding result [1] | binding result [2] | binding result [3] | binding result [4] | binding result [5] | binding result [6] | binding result [7] | binding result [8] | binding result [9] | binding result [10] | binding result [11] | binding result [12] | binding result [13] | binding result [14] | binding result [15] | binding result [16] | binding result [17] | Binder
6 | – | – | – | – | – | – | – | – | – | no binding | no binding | no binding | no binding | no binding | no binding | no binding | no binding | Biotin-PGTPPLNYDSLRL [ENaCβ-P616L peptide]
7 | – | – | – | – | – | – | – | – | – | no binding | no binding | no binding | no binding | no binding | no binding | no binding | no binding | NRLDLPPAKSYEQ (also: biotinylated, Short peptide)
8 | – | – | no binding | – | – | – | – | – | – | – | – | – | – | – | – | – | – | Biotin-SGSGPGTPPPPYTVGPGY (Tested as streptavidin-enzyme complex) [WBP-1 peptide (biotin-SGSGPGTPPPPYTVGPGY)]
9 | – | – | – | – | – | – | – | – | – | no binding | no binding | no binding | no binding | no binding | no binding | no binding | no binding | Biotin-PGTPPPNHDSLRL [ENaCβ-Y618H peptide]
